Assay results as given in paper PMC3887193.

Biological target: HLA-DRα (human)
Details: scale: % of surface expression with wild type Ii

Substance: Ii M91G mutant (natural protein)
- cell surface expression of DRA.DPB1*0401 co-expressed with Ii M91G (flow cytometry, mAb 2.06): 60
